In doi:10.1101/2020.06.17.157982:

Biological target: biotinylated human ACE2 ectodomain, which contains its natural dimerization domain (ACROBiosystems AC2-H82E6) (human) (UniProt Q9BYF1)
Experiment: FACS

biotinylated human ACE2 ectodomain, which contains its natural dimerization domain (ACROBiosystems AC2-H82E6) (human), sequence (Q9BYF1 18-740): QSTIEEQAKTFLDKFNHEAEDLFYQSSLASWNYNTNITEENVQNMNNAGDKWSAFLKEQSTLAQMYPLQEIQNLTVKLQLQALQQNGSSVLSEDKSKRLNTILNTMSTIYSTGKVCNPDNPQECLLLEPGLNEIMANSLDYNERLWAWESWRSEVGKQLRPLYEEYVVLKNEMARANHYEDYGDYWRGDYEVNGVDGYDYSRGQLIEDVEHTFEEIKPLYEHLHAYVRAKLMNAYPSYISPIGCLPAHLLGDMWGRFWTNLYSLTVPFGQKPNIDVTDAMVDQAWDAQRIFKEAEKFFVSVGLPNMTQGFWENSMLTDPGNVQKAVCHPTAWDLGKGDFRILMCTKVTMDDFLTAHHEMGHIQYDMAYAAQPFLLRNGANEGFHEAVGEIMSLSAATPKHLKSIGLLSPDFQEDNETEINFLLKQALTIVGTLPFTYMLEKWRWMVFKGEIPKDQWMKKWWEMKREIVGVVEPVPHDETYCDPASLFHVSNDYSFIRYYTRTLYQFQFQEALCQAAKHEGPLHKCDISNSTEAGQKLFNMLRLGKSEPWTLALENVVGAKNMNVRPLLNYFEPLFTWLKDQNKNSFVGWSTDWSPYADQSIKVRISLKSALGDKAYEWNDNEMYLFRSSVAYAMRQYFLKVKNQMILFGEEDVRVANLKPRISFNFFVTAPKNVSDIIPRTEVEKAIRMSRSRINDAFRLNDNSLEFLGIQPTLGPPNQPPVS

Going from WIV1 RBD, yeast-displayed to ZC45 RBD, yeast-displayed, the Kd rises from 0.017 nM to over 1000 nM. The first binds more tightly here.

For ZXC21 RBD, yeast-displayed, the Kd was over 1000 nM.
